Assay in all cases: GST fusion pull-down on glutathione-Sepharose, anti-MEKK4 immunoblot
(In western blotting, separated proteins are transferred to a membrane and probed.)

Assay [1] concerns the target T1, GST-Rac (GDP bound) on glutathione-Sepharose (UniProt P08515 1-218 = GST).
T1 construct: Loaded with GDP
The protocol: (§1) Each GST fusion protein had GTPγs or GDP bound to the Cdc42, Rac or Ras moiety of the fusion protein. Following the incubation the beads were washed extensively and the bound proteins removed in SDS-Laemmli buffer and resolved by SDS-PAGE using 10% acrylamide gels.

Assay [2] has as its target T2, GST-Cdc42 (GDP bound) on glutathione-Sepharose (UniProt P60953 1-191).
T2 construct: Loaded with GDP; not shown: glutathione S-transferase fusion partner
The protocol: as §1

For assay [3], the target named is T3, GST fusion protein of Ha-Ras (GDP bound) on glutathione-Sepharose (UniProt P08515 1-218 = GST; P01112 1-189).
T3 construct: also called GST-Ras
The protocol: as §1

In assay [4] the target is T4, GST fusion protein of Ha-Ras (GTPγS bound) on glutathione-Sepharose (UniProt P08515 1-218 = GST; P01112 1-189).
T4 construct: also called GST-Ras
The protocol:
as §1

T1 sequence (P08515 whole entry): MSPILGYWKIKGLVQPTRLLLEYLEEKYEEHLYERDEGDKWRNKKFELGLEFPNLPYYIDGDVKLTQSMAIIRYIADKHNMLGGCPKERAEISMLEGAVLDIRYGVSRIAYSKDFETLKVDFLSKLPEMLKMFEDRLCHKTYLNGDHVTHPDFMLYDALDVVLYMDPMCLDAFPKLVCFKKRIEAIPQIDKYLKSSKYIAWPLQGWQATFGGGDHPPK
T2 sequence (P60953 whole entry, the tested form may be a part): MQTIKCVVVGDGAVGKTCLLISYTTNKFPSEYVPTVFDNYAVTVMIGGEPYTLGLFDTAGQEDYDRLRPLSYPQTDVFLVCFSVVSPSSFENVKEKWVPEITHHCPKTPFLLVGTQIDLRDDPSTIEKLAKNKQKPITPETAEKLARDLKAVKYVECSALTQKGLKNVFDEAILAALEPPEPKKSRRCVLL
T4 sequence (P08515 1-218, tags or fused parts left off): as the sequence (P08515 whole entry) above
T3 sequence (P08515 1-218, tags or fused parts left off): as the sequence (P08515 whole entry) above

B1: MEKK4 from a Cos cell transient transfection (enzyme)
chain: MRDAIAEPVPPPALADTPAAAMEELRPAPPPQPEPDPECCPAARQECMLGESARKSMESDPEDFSDETNTETLYGTSPPSTPRQMKRLSAKHQRNSAGRPASRSNLKEKMNTPSQSPHKDLGKGVETVEEYSYKQEKKIRATLRTTERDHKKNAQCSFMLDSVAGSLPKKSIPDVDLNKPYLSLGCSNAKLPVSMPMPIARTARQTSRTDCPADRLKFFETLRLLLKLTSVSKKKDREQRGQENTAAFWFNRSNELIWLELQAWHAGRTINDQDLFLYTARQAIPDIINEILTFKVNYGSIAFSSNGAGFNGPLVEGQCRTPQETNRVGCSSYHEHLQRQRVSFEQVKRIMELLEYMEALYPSLQALQKDYERYAAKDFEDRVQALCLWLNITKDLNQKLRIMGTVLGIKNLSDIGWPVFEIPSPRPSKGYEPEDEVEDTEVELRELESGTEESDEEPTPSPRVPELRLSTDTILDSRSQGCVSRKLERLESEEDSIGWGTADCGPEASRHCLTSIYRPFVDKALKQMGLRKLILRLHKLMNGSLQRARVALVKDDRPVEFSDFPGPMWGSDYVQLSGTPPSSEQKCSAVSWEELRAMDLPSFEPAFLVLCRVLLNVIHECLKLRLEQRPAGEPSLLSIKQLVRECKEVLKGGLLMKQYYQFMLQEVLGGLEKTDCNMDAFEEDLQKMLMVYFDYMRSWIQMLQQLPQASHSLKNLLEEEWNFTKEITHYIRGGEAQAGKLFCDIAGMLLKSTGSFLESGLQESCAELWTSADDNGAADELRRSVIEISRALKELFHEARERASKALGFAKMLRKDLEIAAEFVLSASARELLDALKAKQYVKVQIPGLENLHVFVPDSLAEEKKIILQLLNAATGKDCSKDPDDVFMDAFLLLTKHGDRARDSEDGWGTWEARAVKIVPQVETVDTLRSMQVDNLLLVVMESAHLVLQRKAFQQSIEGLMTVRHEQTSSQPIIAKGLQQLKNDALELCNRISDAIDRVDHMFTLEFDAEVEESESATLQQYYREAMIQGYNFGFEYHKEVVRLMSGEFRQKIGDKYISFAQKWMNYVLTKCESGRGTRPRWATQGFDFLQAIEPAFISALPEDDFLSLQALMNECIGHVIGKPHSPVTAIHRNSPRPVKVPRCHSDPPNPHLIIPTPEGFSTRSVPSDARTHGNSVAAAAAVRAAATTAAGRPGPGGGDSVPAKPVNTAPDTRGSSVPENDRLASIAAELQFRSLSRHSSPTEERDEPAYPRSDSSGSTRRSWELRTLISQTKDSASKQGPIEAIQKSVRLFEERRYREMRRKNIIGQVCDTPKSYDNVMHVGLRKVTFKWQRGNKIGEGQYGKVYTCISVDTGELMAMKEIRFQPNDHKTIKETADELKIFEGIKHPNLVRYFGVELHREEMYIFMEYCDEGTLEEVSRLGLQEHVIRLYTKQITVAINVLHEHGIVHRDIKGANIFLTSSGLIKLGDFGCSVKLKNNAQTMPGEVNSTLGTAAYMAPEVITRAKGEGHGRAADIWSLGCVVIEMVTGKRPWHEYEHNFQIMYKVGMGHKPPIPERLSPEGKAFLSHCLESDPKIRWTASQLLDHAFVKVCTDEE
notes: also called MEKK4.2
Consider B1, for which the “percent of the MEKK4 bound in the presence of GTPγS” value in assay [1] and in assay [2] was under 10% each time.

B2: recombinant MEKK4 protein expressed in E. coli, residues 1261-1597 of the full length protein (enzyme)
chain: RRSWELRTLISQTKDSASKQGPIEAIQKSVRLFEERRYREMRRKNIIGQVCDTPKSYDNVMHVGLRKVTFKWQRGNKIGEGQYGKVYTCISVDTGELMAMKEIRFQPNDHKTIKETADELKIFEGIKHPNLVRYFGVELHREEMYIFMEYCDEGTLEEVSRLGLQEHVIRLYTKQITVAINVLHEHGIVHRDIKGANIFLTSSGLIKLGDFGCSVKLKNNAQTMPGEVNSTLGTAAYMAPEVITRAKGEGHGRAADIWSLGCVVIEMVTGKRPWHEYEHNFQIMYKVGMGHKPPIPERLSPEGKAFLSHCLESDPKIRWTASQLLDHAFVKVCTDEE
notes: No tag is stated; also called truncated recombinant MEKK4
Turning to B2, the binding result in assay [3] and in assay [4] was “no binding” in each case. Also, the “percent of the MEKK4 bound in the presence of GTPγS” value in assay [1] and in assay [2] was under 10% in each case.

Values taken from patent US20080201790A1 (published 2008).
